Reference: patent publication US20160289342A1

How the values were obtained:
[1] = target: human CD20 (human) (UniProt P11836); test: flow cytometry on JY cells, simultaneous binding assay, 200 ng biotinylated BAFF, CD20 channel FL-1
[2] = target: human CD20 (human) (UniProt P11836); test: flow cytometry on JY cells, simultaneous binding assay, 0.32 ng biotinylated BAFF, CD20 channel FL-1
[3] = target: human CD20 (human) (UniProt P11836); test: flow cytometry on JY cells, simultaneous binding assay, 1000 ng biotinylated BAFF, CD20 channel FL-1
[4] = target: human CD20 (human) (UniProt P11836); test: flow cytometry on JY cells, simultaneous binding assay, 5000 ng biotinylated BAFF, CD20 channel FL-1
[5] = target: recombinant human soluble BAFF (human) (UniProt Q9Y275); test: flow cytometry on JY cells, simultaneous binding assay, 200 ng biotinylated BAFF, BAFF channel FL-2 (PE)
[6] = target: recombinant human soluble BAFF (human) (UniProt Q9Y275); test: flow cytometry on JY cells, simultaneous binding assay, 0.32 ng biotinylated BAFF, BAFF channel FL-2 (PE)
[7] = target: recombinant human soluble BAFF (human) (UniProt Q9Y275); test: flow cytometry on JY cells, simultaneous binding assay, 1000 ng biotinylated BAFF, BAFF channel FL-2 (PE)
[8] = target: recombinant human soluble BAFF (human) (UniProt Q9Y275); test: flow cytometry on JY cells, simultaneous binding assay, 5000 ng biotinylated BAFF, BAFF channel FL-2 (PE)

Sequence of human CD20 (human) (P11836 whole entry): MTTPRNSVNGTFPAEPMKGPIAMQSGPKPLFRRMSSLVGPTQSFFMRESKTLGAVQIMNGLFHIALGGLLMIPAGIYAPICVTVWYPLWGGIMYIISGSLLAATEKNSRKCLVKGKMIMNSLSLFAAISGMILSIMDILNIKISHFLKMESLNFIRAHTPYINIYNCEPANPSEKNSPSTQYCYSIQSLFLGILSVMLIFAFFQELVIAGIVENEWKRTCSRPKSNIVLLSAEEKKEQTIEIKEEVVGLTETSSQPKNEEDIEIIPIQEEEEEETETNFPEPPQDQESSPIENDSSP

MFI [1]: 18 MFI
MFI [2]: 9.8 MFI
MFI [3]: 9.14 MFI
MFI [4]: 8.5 MFI
MFI [5]: 1.43 MFI
MFI [6]: 1.31 MFI
MFI [7]: 1.3 MFI
MFI [8]: 1.26 MFI
Substance: control human IgG1 antibody
